Assay results published in patent publication US20110263454A1, “Methods of Identifying Functional Characteristics of Promoters, Transcription Modifying Proteins and Transcription Modulating Agents” (Salk Institute for Biological Studies, priority 2008, published 2011).

B1: CTF3: COUP-TF3 (NR2F6), cDNA driver (protein, UniProt P10588 1-404, looked up)
Nuclear receptor subfamily 2 …: MAMVTGGWGGPGGDTNGVDKAGGYPRAAEDDSASPPGAASDAEPGDEERPGLQVDCVVCGDKSSGKHYGVFTCEGCKSFFKRSIRRNLSYTCRSNRDCQIDQHHRNQCQYCRLKKCFRVGMRKEAVQRGRIPHSLPGAVAASSGSPPGSALAAVASGGDLFPGQPVSELIAQLLRAEPYPAAAGRFGAGGGAAGAVLGIDNVCELAARLLFSTVEWARHAPFFPELPVADQVALLRLSWSELFVLNAAQAALPLHTAPLLAAAGLHAAPMAAERAVAFMDQVRAFQEQVDKLGRLQVDSAEYGCLKAIALFTPDACGLSDPAHVESLQEKAQVALTEYVRAQYPSQPQRFGRLLLRLPALRAVPASLISQLFFMRLVGKTPIETLIRDMLLSGSTFNWPYGSGQ
B2: NR4a2: NR4a2 (NR4A2; NURR1), nuclear hormone receptor cDNA driver (protein, UniProt P43354 1-598, looked up)
Nuclear receptor subfamily 4 …: MPCVQAQYGSSPQGASPASQSYSYHSSGEYSSDFLTPEFVKFSMDLTNTEITATTSLPSFSTFMDNYSTGYDVKPPCLYQMPLSGQQSSIKVEDIQMHNYQQHSHLPPQSEEMMPHSGSVYYKPSSPPTPTTPGFQVQHSPMWDDPGSLHNFHQNYVATTHMIEQRKTPVSRLSLFSFKQSPPGTPVSSCQMRFDGPLHVPMNPEPAGSHHVVDGQTFAVPNPIRKPASMGFPGLQIGHASQLLDTQVPSPPSRGSPSNEGLCAVCGDNAACQHYGVRTCEGCKGFFKRTVQKNAKYVCLANKNCPVDKRRRNRCQYCRFQKCLAVGMVKEVVRTDSLKGRRGRLPSKPKSPQEPSPPSPPVSLISALVRAHVDSNPAMTSLDYSRFQANPDYQMSGDDTQHIQQFYDLLTGSMEIIRGWAEKIPGFADLPKADQDLLFESAFLELFVLRLAYRSNPVEGKLIFCNGVVLHRLQCVRGFGEWIDSIVEFSSNLQNMNIDISAFSCIAALAMVTERHGLKEPKRVEELQNKIVNCLKDHVTFNNGGLNRPNYLSKLLGKLPELRTLCTQGLQRIFYLKLEDLVPPPAIIDKLFLDTLPF
B3: hMR: Mineralocorticoid Receptor (NR3C2, MR), cDNA driver (protein, UniProt P08235 1-984, looked up)
Mineralocorticoid receptor: METKGYHSLPEGLDMERRWGQVSQAVERSSLGPTERTDENNYMEIVNVSCVSGAIPNNSTQGSSKEKQELLPCLQQDNNRPGILTSDIKTELESKELSATVAESMGLYMDSVRDADYSYEQQNQQGSMSPAKIYQNVEQLVKFYKGNGHRPSTLSCVNTPLRSFMSDSGSSVNGGVMRAVVKSPIMCHEKSPSVCSPLNMTSSVCSPAGINSVSSTTASFGSFPVHSPITQGTPLTCSPNVENRGSRSHSPAHASNVGSPLSSPLSSMKSSISSPPSHCSVKSPVSSPNNVTLRSSVSSPANINNSRCSVSSPSNTNNRSTLSSPAASTVGSICSPVNNAFSYTASGTSAGSSTLRDVVPSPDTQEKGAQEVPFPKTEEVESAISNGVTGQLNIVQYIKPEPDGAFSSSCLGGNSKINSDSSFSVPIKQESTKHSCSGTSFKGNPTVNPFPFMDGSYFSFMDDKDYYSLSGILGPPVPGFDGNCEGSGFPVGIKQEPDDGSYYPEASIPSSAIVGVNSGGQSFHYRIGAQGTISLSRSARDQSFQHLSSFPPVNTLVESWKSHGDLSSRRSDGYPVLEYIPENVSSSTLRSVSTGSSRPSKICLVCGDEASGCHYGVVTCGSCKVFFKRAVEGQHNYLCAGRNDCIIDKIRRKNCPACRLQKCLQAGMNLGARKSKKLGKLKGIHEEQPQQQQPPPPPPPPQSPEEGTTYIAPAKEPSVNTALVPQLSTISRALTPSPVMVLENIEPEIVYAGYDSSKPDTAENLLSTLNRLAGKQMIQVVKWAKVLPGFKNLPLEDQITLIQYSWMCLSSFALSWRSYKHTNSQFLYFAPDLVFNEEKMHQSAMYELCQGMHQISLQFVRLQLTFEEYTIMKVLLLLSTIPKDGLKSQAAFEEMRTNYIKELRKMVTKCPNNSGQSWQRFYQLTKLLDSMHDLVSDLLEFCFYTFRESHALKVEFPAMLVEIISDQLPKVESGNAKPLYFHRK
B4: PR: Progesterone Receptor (NR3C3), cDNA driver (protein, UniProt P06401 1-933, looked up)
Progesterone receptor: MTELKAKGPRAPHVAGGPPSPEVGSPLLCRPAAGPFPGSQTSDTLPEVSAIPISLDGLLFPRPCQGQDPSDEKTQDQQSLSDVEGAYSRAEATRGAGGSSSSPPEKDSGLLDSVLDTLLAPSGPGQSQPSPPACEVTSSWCLFGPELPEDPPAAPATQRVLSPLMSRSGCKVGDSSGTAAAHKVLPRGLSPARQLLLPASESPHWSGAPVKPSPQAAAVEVEEEDGSESEESAGPLLKGKPRALGGAAAGGGAAAVPPGAAAGGVALVPKEDSRFSAPRVALVEQDAPMAPGRSPLATTVMDFIHVPILPLNHALLAARTRQLLEDESYDGGAGAASAFAPPRSSPCASSTPVAVGDFPDCAYPPDAEPKDDAYPLYSDFQPPALKIKEEEEGAEASARSPRSYLVAGANPAAFPDFPLGPPPPLPPRATPSRPGEAAVTAAPASASVSSASSSGSTLECILYKAEGAPPQQGPFAPPPCKAPGASGCLLPRDGLPSTSASAAAAGAAPALYPALGLNGLPQLGYQAAVLKEGLPQVYPPYLNYLRPDSEASQSPQYSFESLPQKICLICGDEASGCHYGVLTCGSCKVFFKRAMEGQHNYLCAGRNDCIVDKIRRKNCPACRLRKCCQAGMVLGGRKFKKFNKVRVVRALDAVALPQPVGVPNESQALSQRFTFSPGQDIQLIPPLINLLMSIEPDVIYAGHDNTKPDTSSSLLTSLNQLGERQLLSVVKWSKSLPGFRNLHIDDQITLIQYSWMSLMVFGLGWRSYKHVSGQMLYFAPDLILNEQRMKESSFYSLCLTMWQIPQEFVKLQVSQEEFLCMKVLLLLNTIPLEGLRSQTQFEEMRSSYIRELIKAIGLRQKGVVSSSQRFYQLTKLLDNLHDLVKQLHLYCLNTFIQSRALSVEFPEMMSEVIAAQLPKILAGMVKPLLFHKK
B5: CTF2: COUP-TF2 (NR2F2), cDNA driver (protein, UniProt P24468 1-414, looked up)
COUP transcription factor 2: MAMVVSTWRDPQDEVPGSQGSQASQAPPVPGPPPGAPHTPQTPGQGGPASTPAQTAAGGQGGPGGPGSDKQQQQQHIECVVCGDKSSGKHYGQFTCEGCKSFFKRSVRRNLSYTCRANRNCPIDQHHRNQCQYCRLKKCLKVGMRREAVQRGRMPPTQPTHGQFALTNGDPLNCHSYLSGYISLLLRAEPYPTSRFGSQCMQPNNIMGIENICELAARMLFSAVEWARNIPFFPDLQITDQVALLRLTWSELFVLNAAQCSMPLHVAPLLAAAGLHASPMSADRVVAFMDHIRIFQEQVEKLKALHVDSAEYSCLKAIVLFTSDACGLSDVAHVESLQEKSQCALEEYVRSQYPNQPTRFGKLLLRLPSLRTVSSSVIEQLFFVRLVGKTPIETLIRDMLLSGSSFNWPYMAIQ

Key:
hIRF7 promoter = test: NHR-promoter luciferase screen, hIRF7 promoter; type: cell-based, human; conditions: for Normalized Luc. act., normalized to control / Luc. act., normalized to lacZ: IRF7 promoter reporter; for Normalized Luc. act., normalized to control: HR without or with its ligand, relative to control; for Luc. act., normalized to lacZ: hormone receptor (HR) without or with its ligand; for hIRF7 promoter reporter activity: transcription factor +/- ligand, control = 1.00
Method in brief: (§1)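 CV-1 cells were co-transfected with 50 ng NHR (homodimer or NHR/RXR heterodimer), 100 ng promoter-luciferase construct and 50 ng LacZ. Luciferase was normalized to LacZ and to a no-NHR/no-ligand control.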

mADRP promoter = test: NHR-promoter luciferase screen, mADRP promoter; type: cell-based, mouse; conditions: for Luc. act., normalized to lacZ / Normalized Luc. act., normalized to control: ADRP promoter, HR/ligand component; for mADRP promoter reporter activity: transcription factor +/- ligand, control = 1.00
Method in brief: as §1

mDio2 promoter = test: NHR-promoter luciferase screen, mDio2 promoter; type: cell-based, mouse; conditions: for Luc. act., normalized to lacZ / Normalized Luc. act., normalized to control: Dio2, HR component without or with its ligand; for mDio2 promoter reporter activity: transcription factor +/- ligand, control = 1.00
Method in brief: as §1

hIFNg promoter = test: NHR-promoter luciferase screen, hIFNg promoter; type: cell-based, human; conditions: for Luc. act., normalized to lacZ / Normalized Luc. act., normalized to control: IFNg promoter, HR component without or with ligand; for hIFNg promoter reporter activity: transcription factor +/- ligand, control = 1.00
Method in brief: as §1

SREBP1c promoter = test: NHR-promoter luciferase screen, SREBP1c promoter; type: cell-based, mouse; conditions: for Luc. act., normalized to lacZ / Normalized Luc. act., normalized to control: SREBP1c promoter, HR component without or with ligand; for mSREBP1-c promoter reporter activity: transcription factor +/- ligand, control = 1.00
Method in brief: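 CV-1 cells co-transfected with 50 ng NHR (homodimer or NHR/RXR heterodimer), 100 ng promoter-luciferase and 50 ng LacZ. Luciferase read at 48 h, normalised to LacZ and to a no-NHR/no-ligand control.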

hPPARg2 promoter = test: NHR-promoter luciferase screen, hPPARg2 promoter; type: cell-based, human; conditions: for Luc. act., normalized to lacZ / Normalized Luc. act., normalized to control: PPARG2 promoter, hormone receptor with or without its ligand; for Normalized Luc. act., normalized to control: relative to control; for Results of assays of transcription factor (+/- ligand) with hPPARg2: Table 6d, luciferase activity relative to control (control = 1.00)
Method in brief: as §1

Molecule | Normalized Luc. act., normalized to control (hIRF7 promoter) | Luc. act., normalized to lacZ (hIRF7 promoter) | hIRF7 promoter reporter activity (hIRF7 promoter) | Luc. act., normalized to lacZ (mADRP promoter) | Normalized Luc. act., normalized to control (mADRP promoter) | mADRP promoter reporter activity (mADRP promoter) | Luc. act., normalized to lacZ (mDio2 promoter) | Normalized Luc. act., normalized to control (mDio2 promoter) | mDio2 promoter reporter activity (mDio2 promoter) | Luc. act., normalized to lacZ (hIFNg promoter) | Normalized Luc. act., normalized to control (hIFNg promoter) | hIFNg promoter reporter activity (hIFNg promoter) | Luc. act., normalized to lacZ (SREBP1c promoter) | Normalized Luc. act., normalized to control (SREBP1c promoter) | mSREBP1-c promoter reporter activity (SREBP1c promoter) | Luc. act., normalized to lacZ (hPPARg2 promoter) | Normalized Luc. act., normalized to control (hPPARg2 promoter) | Results of assays of transcription factor (+/- ligand) with hPPARg2 (hPPARg2 promoter)
B1 | 1.0 | 25.5 | 0.97 | 462.7 | 0.9 | 0.93 | 15.3 | 1.0 | 0.97 | 28.5 | 1.8 | 1.79 | 230.3 | 0.7 | 0.71 | 1.7 | 0.8 | 0.85
B2 | 0.9 | 23.2 | 0.88 | 382.8 | 0.8 | 0.77 | 12.4 | 0.8 | 0.79 | 24.3 | 1.5 | 1.53 | 456.2 | 1.4 | 1.42 | 1.4 | 0.7 | 0.68
B3 | 0.8 | 21.1 | 0.80 | 306.4 | 0.6 | 0.62 | 12.7 | 0.8 | 0.81 | 10.4 | 0.7 | 0.65 | 223.2 | 0.7 | 0.69 | 1.0 | 0.5 | 0.51
B4 | 1.3 | 33.0 | 1.25 | 497.2 | 1.0 | 1.00 | 21.4 | 1.4 | 1.36 | 22.6 | 1.4 | 1.42 | 466.4 | 1.4 | 1.45 | 1.8 | 0.9 | 0.88
B5 | 1.0 | 25.6 | 0.97 | 893.8 | 1.8 | 1.80 | 18.8 | 1.2 | 1.20 | 35.0 | 2.2 | 2.20 | 455.6 | 1.4 | 1.41 | 1.5 | 0.8 | 0.76
